Measurements reported in article PMC4833381.

Assays:
[1] = target: HCMV gB of HCMV BADrUL131 (infected cells and extracellular virions) (human cytomegalovirus, BADrUL131) (UniProt P06473); test: co-IP
[2] = target: HCMV UL130 of HCMV BADrUL131 (extracellular virions) (human cytomegalovirus, BADrUL131) (UniProt P16772); test: co-IP
[3] = target: HCMV gB of HCMV BADrUL131 (infected cells and extracellular virions) (human cytomegalovirus, BADrUL131) (UniProt P06473); test: co-IP; IP-western, repeat with an additional BADrUL131 virion preparation solubilized in 1% NP-40; IP with anti-gB MAb 15H7; gH signal read beside a linear range of gH/gL lysate (Image Studio, Licor)
[4] = target: HCMV gL of HCMV BADrUL131 (extracellular virions) (human cytomegalovirus, BADrUL131) (UniProt P16832); test: co-IP
Chain of UniProt P16832 (P16832 31-278): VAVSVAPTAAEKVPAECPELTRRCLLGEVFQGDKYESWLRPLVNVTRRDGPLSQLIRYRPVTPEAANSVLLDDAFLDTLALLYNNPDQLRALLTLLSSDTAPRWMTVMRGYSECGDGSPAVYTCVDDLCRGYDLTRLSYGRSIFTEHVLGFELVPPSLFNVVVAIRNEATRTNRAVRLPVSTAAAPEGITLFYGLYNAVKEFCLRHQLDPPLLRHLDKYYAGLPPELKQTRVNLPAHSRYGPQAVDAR

[5] = target: HCMV gB of clinical strain TR (extracellular virions) (human cytomegalovirus, strain TR); test: co-IP; IP-western: extracellular virions of HCMV clinical strain TR solubilized in 1% NP-40; IP with anti-gB MAb 15H7; gH signal read beside a linear range of gH/gL lysate (Image Studio, Licor)
[6] = target: HCMV glycoprotein gH, strain TR (Ad vector) (human cytomegalovirus, strain TR); test: co-IP; IP-western: ARPE-19 cells transduced with Ad vectors, 1% NP-40 lysates; IP with anti-gH MAb 14-4b, anti-gB MAbs 9C1, 13H10, 15H7 or anti-FLAG MAb; protein-A agarose; blots for gB, gH, HSV-1 gH or HSV-1 gD; percent against 5% input (ImageJ)
[7] = target: HCMV glycoprotein gH, strain TR (Ad vector) (human cytomegalovirus, strain TR); test: co-IP; IP-western: MRC-5 fibroblasts transduced with Ad vectors, 1% NP-40 lysates; IP with anti-gH MAb 14-4b; blot with anti-gB rabbit serum; percent against 5% input
[8] = target: HCMV glycoprotein gH, strain TR (Ad vector) (human cytomegalovirus, strain TR); test: co-IP; pulse-chase: Ad-transduced ARPE-19 cells labeled 15 min with 35S-methionine/cysteine, chased 60, 120 or 240 min; 1% NP-40 extracts; IP with anti-gH MAb 14-4b; SDS-PAGE under reducing conditions
[9] = target: HCMV gB with a C-terminal FLAG epitope tag (Ad vector) (human cytomegalovirus) (UniProt P06473); test: co-IP; IP-western: ARPE-19 cells transduced with Ad vectors, 1% NP-40 lysates; IP with anti-gH MAb 14-4b, anti-gB MAbs 9C1, 13H10, 15H7 or anti-FLAG MAb; protein-A agarose; blots for gB, gH, HSV-1 gH or HSV-1 gD; percent against 5% input (ImageJ)
[10] = target: HCMV glycoprotein gB, lab strain AD169 (Ad vector) (human cytomegalovirus, strain AD169) (UniProt P06473); test: as above

## HCMV UL130 of HCMV BADrUL131 (extracellular virions) (from UniProt P16772) (natural protein)
[1]
  percent of the total co-IP'd with gB: 2.5%

## HCMV gB of HCMV BADrUL131 (infected cells and extracellular virions) (from UniProt P06473 32-906) (natural protein)
[2]
  percent of the total gB precipitated with anti-UL130 serum: 1%

## HCMV gH of HCMV BADrUL131 (infected cells and extracellular virions) (from UniProt P12824 24-743) (natural protein)
[3]
  percent of the total gH co-IP'd with gB: 21%
[2]
  percent of the total gH/gL precipitated with anti-UL130 serum: 24%
[1]
  percent of the total gH/gL co-IP'd with gB: 50%
[4]
  percent of the total gH IP'd with gL antibodies: 8%

## HCMV gH of clinical strain TR (extracellular virions) (natural protein)
[5]
  percent of the total gH co-IP'd with gB: 16%

## HCMV gO of HCMV BADrUL131 (extracellular virions) (from UniProt P16750 31-466) (natural protein)
[1]
  percent of the total co-IP'd with gB: 1%

## HCMV glycoprotein gB, lab strain AD169 (Ad vector) (from UniProt P06473 32-906) (natural protein)
[6]
  percent of the total gB co-IP'd with gH/gL: 16.5%
[7]
  percent of the total gB co-IP'd with gH/gL: 13%
[8]
  gB complexed with gH/gL, percent of the gH/gL precipitated (pulse sample): 38%

## HCMV glycoprotein gH, strain TR (Ad vector) (natural protein)
[9]
  percent of gH/gL co-IP'd with gB MAbs or anti-FLAG MAbs: 1 to 6%
[10]
  percent of gH/gL co-IP'd with gB MAbs or anti-FLAG MAbs: 1 to 6%
